Data reported in patent US20220143024A1, “METHODS OF USING IMIPRIDONES” (Board of Regents, The University of Texas System, priority 2019, published 2022).

Assays:
Assay in all cases: BioID-MS
MRPS24 (human) = MRPS24 (human) (UniProt Q96EL2)
MRPS17 (human) = MRPS17 (human) (UniProt Q9Y2R5)
COX5B (human) = COX5B (human) (UniProt P10606)
MRPS26 (human) = MRPS26 (human) (UniProt Q9BYN8)
NDUFAF2 (human) = NDUFAF2 (human) (UniProt Q8N183)
OXA1L (human) = OXA1L (human) (UniProt Q15070)
PNPT1 (human) = PNPT1 (human) (UniProt Q8TCS8)
PYCR1 (human) = PYCR1 (human) (UniProt P32322)
MRPS28 (human) = MRPS28 (human) (UniProt Q9Y2Q9)
ABCB10 (human) = ABCB10 (human) (UniProt Q9NRK6)
ALDH1L2 (human) = ALDH1L2 (human) (UniProt Q3SY69)
TST (human) = TST (human) (UniProt Q16762)
MRPL54 (human) = MRPL54 (human) (UniProt Q6P161)
PYCR2 (human) = PYCR2 (human) (UniProt Q96C36)
ACAA2 (human) = ACAA2 (human) (UniProt P42765)
FECH (human) = FECH (human) (UniProt P22830)
PDE12 (human) = PDE12 (human) (UniProt Q6L8Q7)
HINT2 (human) = HINT2 (human) (UniProt Q9BX68)
GATC (human) = GATC (human) (UniProt O43716)
NDUFS2 (human) = NDUFS2 (human) (UniProt O75306)
SDHB (human) = SDHB (human) (UniProt P21912)
COQ6 (human) = COQ6 (human) (UniProt Q9Y2Z9)
COQ6 (human), sequence (Q9Y2Z9 29-468 limits assumed): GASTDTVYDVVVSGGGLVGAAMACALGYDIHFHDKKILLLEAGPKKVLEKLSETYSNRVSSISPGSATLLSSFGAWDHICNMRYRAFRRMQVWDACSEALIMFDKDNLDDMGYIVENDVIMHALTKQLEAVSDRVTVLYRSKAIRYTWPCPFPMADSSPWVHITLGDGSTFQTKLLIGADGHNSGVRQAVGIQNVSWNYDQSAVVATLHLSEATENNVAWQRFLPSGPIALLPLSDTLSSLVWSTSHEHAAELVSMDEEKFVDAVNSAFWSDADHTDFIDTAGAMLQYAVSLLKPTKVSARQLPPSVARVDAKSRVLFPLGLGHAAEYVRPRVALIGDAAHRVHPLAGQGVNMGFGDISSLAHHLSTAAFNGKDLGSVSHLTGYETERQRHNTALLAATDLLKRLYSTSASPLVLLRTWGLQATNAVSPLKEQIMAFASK

EARS2 (human) = EARS2 (human) (UniProt Q5JPH6)
SUCLG2 (human) = SUCLG2 (human) (UniProt Q96I99)
MRPL47 (human) = MRPL47 (human) (UniProt Q9HD33)
ACN9 (human) = ACN9 (human) (UniProt Q9NRP4)
SUCLG1 (human) = SUCLG1 (human) (UniProt P53597)
SUCLG1 (human), sequence (P53597 41-346 limits assumed): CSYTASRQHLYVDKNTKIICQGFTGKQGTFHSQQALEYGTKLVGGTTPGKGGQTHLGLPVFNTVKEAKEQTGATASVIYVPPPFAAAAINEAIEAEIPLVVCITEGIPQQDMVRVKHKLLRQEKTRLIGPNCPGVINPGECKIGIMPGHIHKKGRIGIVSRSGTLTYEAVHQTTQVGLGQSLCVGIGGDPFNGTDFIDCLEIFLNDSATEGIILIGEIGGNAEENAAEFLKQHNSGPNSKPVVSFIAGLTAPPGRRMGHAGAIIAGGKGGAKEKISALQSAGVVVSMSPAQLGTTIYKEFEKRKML

COX4I1 (human) = COX4I1 (human) (UniProt P13073)
ERAL1 (human) = ERAL1 (human) (UniProt O75616)
ABHD10 (human) = ABHD10 (human) (UniProt Q9NUJ1)
MRPL45 (human) = MRPL45 (human) (UniProt Q9BRJ2)
THNSL1 (human) = THNSL1 (human) (UniProt Q8IYQ7)
C2orf56 (human) = C2orf56 (human) (UniProt Q7L592)
UQCRB (human) = UQCRB (human) (UniProt P14927)
GPT2 (human) = GPT2 (human) (UniProt Q8TD30)
LYRM7 (human) = LYRM7 (human) (UniProt Q5U5X0)
LYRM7 (human), sequence (Q5U5X0 whole entry): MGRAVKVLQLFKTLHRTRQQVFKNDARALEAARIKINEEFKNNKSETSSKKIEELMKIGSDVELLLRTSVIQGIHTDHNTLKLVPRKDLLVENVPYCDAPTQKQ

NADK2 (human) = NADK2 (human) (UniProt Q4G0N4)
MRPS7 (human) = MRPS7 (human) (UniProt Q9Y2R9)
ALDH2 (human) = ALDH2 (human) (UniProt P05091)
PCK2 (human) = PCK2 (human) (UniProt Q16822)
PCK2 (human), sequence (Q16822 33-640 limits assumed): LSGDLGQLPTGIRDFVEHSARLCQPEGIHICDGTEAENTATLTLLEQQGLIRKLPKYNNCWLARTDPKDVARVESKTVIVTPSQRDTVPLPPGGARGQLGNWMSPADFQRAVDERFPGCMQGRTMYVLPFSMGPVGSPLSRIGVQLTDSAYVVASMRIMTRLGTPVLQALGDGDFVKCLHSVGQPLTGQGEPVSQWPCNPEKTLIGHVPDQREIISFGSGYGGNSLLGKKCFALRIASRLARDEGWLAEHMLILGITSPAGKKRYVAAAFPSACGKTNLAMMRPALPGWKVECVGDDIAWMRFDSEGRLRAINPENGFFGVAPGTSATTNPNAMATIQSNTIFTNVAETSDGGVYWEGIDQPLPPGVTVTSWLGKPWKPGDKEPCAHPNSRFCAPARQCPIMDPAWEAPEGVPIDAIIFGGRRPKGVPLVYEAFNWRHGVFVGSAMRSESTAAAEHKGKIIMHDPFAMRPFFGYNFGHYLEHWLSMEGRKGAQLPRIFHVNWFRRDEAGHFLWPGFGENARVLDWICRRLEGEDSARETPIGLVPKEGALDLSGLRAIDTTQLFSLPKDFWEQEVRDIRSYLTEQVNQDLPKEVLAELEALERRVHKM

GATB (human) = GATB (human) (UniProt O75879)
GBAS (human) = GBAS (human) (UniProt O75323)
SDHAF3 (human) = SDHAF3 (human) (UniProt Q9NRP4)
AARS2 (human) = AARS2 (human) (UniProt Q5JTZ9)
PDPR (human) = PDPR (human) (UniProt Q8NCN5)
ECHS1 (human) = ECHS1 (human) (UniProt P30084)
ECHS1 (human), sequence (P30084 28-290 limits assumed): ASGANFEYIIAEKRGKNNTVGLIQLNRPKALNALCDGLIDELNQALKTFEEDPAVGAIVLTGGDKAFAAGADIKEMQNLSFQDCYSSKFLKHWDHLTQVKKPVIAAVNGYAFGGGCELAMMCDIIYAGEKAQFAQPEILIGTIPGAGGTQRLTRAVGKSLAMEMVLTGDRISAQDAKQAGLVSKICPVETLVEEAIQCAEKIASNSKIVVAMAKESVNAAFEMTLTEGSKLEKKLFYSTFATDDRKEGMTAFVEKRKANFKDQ

DHRS4 (human) = DHRS4 (human) (UniProt Q9BTZ2)
NDUFS6 (human) = NDUFS6 (human) (UniProt O75380)
HSPA1L (human) = HSPA1L (human) (UniProt P34931)
HSPA1L (human), sequence (P34931 whole entry): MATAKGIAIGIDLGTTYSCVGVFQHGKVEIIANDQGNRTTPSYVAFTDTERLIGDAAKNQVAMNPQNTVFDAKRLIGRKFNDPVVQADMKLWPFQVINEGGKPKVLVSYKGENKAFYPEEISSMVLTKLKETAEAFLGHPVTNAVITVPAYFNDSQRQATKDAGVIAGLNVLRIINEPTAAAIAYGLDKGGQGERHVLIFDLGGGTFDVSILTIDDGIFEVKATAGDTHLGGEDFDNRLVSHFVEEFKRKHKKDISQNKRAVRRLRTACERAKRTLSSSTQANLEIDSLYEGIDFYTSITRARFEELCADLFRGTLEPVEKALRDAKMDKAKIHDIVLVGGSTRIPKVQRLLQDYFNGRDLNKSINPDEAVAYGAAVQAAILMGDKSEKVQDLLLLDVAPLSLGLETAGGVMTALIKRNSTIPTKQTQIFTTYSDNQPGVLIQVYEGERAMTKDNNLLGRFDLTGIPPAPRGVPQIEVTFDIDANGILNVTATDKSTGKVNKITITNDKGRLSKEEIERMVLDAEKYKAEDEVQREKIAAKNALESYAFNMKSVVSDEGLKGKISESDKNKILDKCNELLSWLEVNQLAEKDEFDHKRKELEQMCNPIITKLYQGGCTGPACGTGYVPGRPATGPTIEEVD

HSD17B8 (human) = HSD17B8 (human) (UniProt Q92506)
NARS2 (human) = NARS2 (human) (UniProt Q96I59)
NARS2 (human), sequence (Q96I59 15-477 limits assumed): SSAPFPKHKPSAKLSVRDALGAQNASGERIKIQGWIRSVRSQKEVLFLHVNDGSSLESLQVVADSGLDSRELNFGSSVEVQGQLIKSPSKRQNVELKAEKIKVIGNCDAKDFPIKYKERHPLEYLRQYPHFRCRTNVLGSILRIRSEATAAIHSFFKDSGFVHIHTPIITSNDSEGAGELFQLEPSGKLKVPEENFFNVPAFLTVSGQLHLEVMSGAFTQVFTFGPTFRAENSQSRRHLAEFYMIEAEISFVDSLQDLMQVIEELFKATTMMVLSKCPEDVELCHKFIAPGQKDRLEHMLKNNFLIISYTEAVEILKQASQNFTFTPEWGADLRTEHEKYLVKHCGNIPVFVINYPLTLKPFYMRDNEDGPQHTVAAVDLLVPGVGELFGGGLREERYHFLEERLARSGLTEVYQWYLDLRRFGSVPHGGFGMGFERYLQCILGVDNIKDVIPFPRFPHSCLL

OGDH (human) = OGDH (human) (UniProt Q02218)
OGDH (human), sequence (Q02218 41-1023 limits assumed): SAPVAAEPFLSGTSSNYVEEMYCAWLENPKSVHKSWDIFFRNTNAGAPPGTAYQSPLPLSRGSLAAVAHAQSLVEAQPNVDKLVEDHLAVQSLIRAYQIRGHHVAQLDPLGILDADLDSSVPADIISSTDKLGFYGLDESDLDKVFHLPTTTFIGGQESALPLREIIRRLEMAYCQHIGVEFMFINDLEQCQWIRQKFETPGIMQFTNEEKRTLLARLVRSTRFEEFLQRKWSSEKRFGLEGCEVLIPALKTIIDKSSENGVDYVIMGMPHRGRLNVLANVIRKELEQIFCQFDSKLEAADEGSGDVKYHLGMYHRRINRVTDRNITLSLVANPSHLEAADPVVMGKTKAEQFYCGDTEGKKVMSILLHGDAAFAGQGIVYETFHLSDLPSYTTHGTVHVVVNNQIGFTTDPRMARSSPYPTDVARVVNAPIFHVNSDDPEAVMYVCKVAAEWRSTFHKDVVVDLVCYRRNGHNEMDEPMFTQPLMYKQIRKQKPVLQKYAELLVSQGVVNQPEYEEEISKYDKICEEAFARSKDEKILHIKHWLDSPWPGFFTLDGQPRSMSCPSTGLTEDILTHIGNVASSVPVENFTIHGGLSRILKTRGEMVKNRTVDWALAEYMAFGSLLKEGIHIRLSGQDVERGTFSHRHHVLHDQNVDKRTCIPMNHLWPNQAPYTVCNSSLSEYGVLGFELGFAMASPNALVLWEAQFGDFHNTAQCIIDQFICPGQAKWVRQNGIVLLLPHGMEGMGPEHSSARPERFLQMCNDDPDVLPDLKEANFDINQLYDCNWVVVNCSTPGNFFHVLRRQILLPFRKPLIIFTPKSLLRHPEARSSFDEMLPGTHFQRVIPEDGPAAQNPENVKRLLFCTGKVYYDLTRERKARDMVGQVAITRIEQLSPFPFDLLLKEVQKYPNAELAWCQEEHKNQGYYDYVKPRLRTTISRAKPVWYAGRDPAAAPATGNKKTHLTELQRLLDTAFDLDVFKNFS

MRPS11 (human) = MRPS11 (human) (UniProt P82912)
T1MM44 (human) = T1MM44 (human) (UniProt O43615)
SUCLA2 (human) = SUCLA2 (human) (UniProt Q9P2R7)
SUCLA2 (human), sequence (Q9P2R7 53-463 limits assumed): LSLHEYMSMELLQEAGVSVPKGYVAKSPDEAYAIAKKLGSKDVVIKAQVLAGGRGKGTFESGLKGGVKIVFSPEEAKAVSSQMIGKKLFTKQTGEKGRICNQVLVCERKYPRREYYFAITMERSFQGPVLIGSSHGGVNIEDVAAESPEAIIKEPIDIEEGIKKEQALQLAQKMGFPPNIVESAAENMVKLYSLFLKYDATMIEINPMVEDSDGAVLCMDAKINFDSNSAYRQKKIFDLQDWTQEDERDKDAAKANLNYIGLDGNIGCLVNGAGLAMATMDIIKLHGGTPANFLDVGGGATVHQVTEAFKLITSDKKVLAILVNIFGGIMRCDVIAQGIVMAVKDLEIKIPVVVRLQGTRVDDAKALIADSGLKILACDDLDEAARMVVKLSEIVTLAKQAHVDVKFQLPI

NFUl (human) = NFUl (human) (UniProt Q9UMS0)
GCDH (human) = GCDH (human) (UniProt Q92947)
GCDH (human), sequence (Q92947 45-438 limits assumed): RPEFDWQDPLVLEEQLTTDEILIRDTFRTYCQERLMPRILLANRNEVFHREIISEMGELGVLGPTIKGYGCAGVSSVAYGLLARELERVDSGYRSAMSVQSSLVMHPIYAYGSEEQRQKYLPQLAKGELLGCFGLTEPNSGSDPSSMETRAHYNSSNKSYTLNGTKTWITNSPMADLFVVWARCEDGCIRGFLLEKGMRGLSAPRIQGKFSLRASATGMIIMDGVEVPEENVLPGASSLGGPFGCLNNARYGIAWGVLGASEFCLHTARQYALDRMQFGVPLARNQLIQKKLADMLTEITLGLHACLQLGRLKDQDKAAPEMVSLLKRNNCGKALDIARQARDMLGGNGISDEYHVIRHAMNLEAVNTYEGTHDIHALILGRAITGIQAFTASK

NDUFA7 (human) = NDUFA7 (human) (UniProt O95182)
NDUFA7 (human), sequence (O95182 2-113 limits assumed): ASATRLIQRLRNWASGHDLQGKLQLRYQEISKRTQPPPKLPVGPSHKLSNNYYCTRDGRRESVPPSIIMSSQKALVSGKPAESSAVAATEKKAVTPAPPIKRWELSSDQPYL

NDUFAF2 (human), sequence (Q8N183 whole entry): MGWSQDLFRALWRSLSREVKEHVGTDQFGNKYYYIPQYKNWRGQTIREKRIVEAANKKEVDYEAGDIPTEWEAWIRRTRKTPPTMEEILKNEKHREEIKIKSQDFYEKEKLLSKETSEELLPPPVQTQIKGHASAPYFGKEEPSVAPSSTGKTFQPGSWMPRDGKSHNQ

Substance: FlagBirA-ClpP (Y118A) (from UniProt P06709 1-321; Q16740 57-277) (enzyme)
- Log2 Fold change (vs control) (MRPS24 (human)): 1.12 log2
- Log2 Fold change (vs control) (MRPS17 (human)): -0.55 log2
- Log2 Fold change (vs control) (COX5B (human)): 0.46 log2
- Log2 Fold change (vs control) (MRPS26 (human)): -0.52 log2
- Log2 Fold change (vs control) (NDUFAF2 (human)): -0.15 log2
- Log2 Fold change (vs control) (OXA1L (human)): -1 log2
- Log2 Fold change (vs control) (PNPT1 (human)): -0.07 log2
- Log2 Fold change (vs control) (PYCR1 (human)): 1.08 log2
- Log2 Fold change (vs control) (MRPS28 (human)): -0.49 log2
- Log2 Fold change (vs control) (ABCB10 (human)): -1.32 log2
- Log2 Fold change (vs control) (ALDH1L2 (human)): -0.69 log2
- Log2 Fold change (vs control) (TST (human)): -0.51 log2
- Log2 Fold change (vs control) (MRPL54 (human)): -3 log2
- Log2 Fold change (vs control) (PYCR2 (human)): 0.26 log2
- Log2 Fold change (vs control) (ACAA2 (human)): -0.92 log2
- Log2 Fold change (vs control) (FECH (human)): -0.68 log2
- Log2 Fold change (vs control) (PDE12 (human)): 0.03 log2
- Log2 Fold change (vs control) (HINT2 (human)): 0.09 log2
- Log2 Fold change (vs control) (GATC (human)): -0.05 log2
- Log2 Fold change (vs control) (NDUFS2 (human)): 0.1 log2
- Log2 Fold change (vs control) (SDHB (human)): -0.6 log2
- Log2 Fold change (vs control) (COQ6 (human)): 0.62 log2
- Log2 Fold change (vs control) (EARS2 (human)): -0.17 log2
- Log2 Fold change (vs control) (SUCLG2 (human)): -0.49 log2
- Log2 Fold change (vs control) (MRPL47 (human)): -1.94 log2
- Log2 Fold change (vs control) (ACN9 (human)): -2.14 log2
- Log2 Fold change (vs control) (SUCLG1 (human)): -0.28 log2
- Log2 Fold change (vs control) (COX4I1 (human)): 0.17 log2
- Log2 Fold change (vs control) (ERAL1 (human)): -1.33 log2
- Log2 Fold change (vs control) (ABHD10 (human)): -0.16 log2
- Log2 Fold change (vs control) (MRPL45 (human)): -0.29 log2
- Log2 Fold change (vs control) (THNSL1 (human)): 0.03 log2
- Log2 Fold change (vs control) (C2orf56 (human)): 0.19 log2
- Log2 Fold change (vs control) (UQCRB (human)): -2.38 log2
- Log2 Fold change (vs control) (GPT2 (human)): 0.21 log2
- Log2 Fold change (vs control) (LYRM7 (human)): 0.23 log2
- Log2 Fold change (vs control) (NADK2 (human)): 0.06 log2
- Log2 Fold change (vs control) (MRPS7 (human)): 0.71 log2
- Log2 Fold change (vs control) (ALDH2 (human)): -0.18 log2
- Log2 Fold change (vs control) (PCK2 (human)): -0.51 log2
- Log2 Fold change (vs control) (GATB (human)): -3.1 log2
- Log2 Fold change (vs control) (GBAS (human)): -0.38 log2
- Log2 Fold change (vs control) (SDHAF3 (human)): -0.03 log2
- Log2 Fold change (vs control) (AARS2 (human)): -0.14 log2
- Log2 Fold change (vs control) (PDPR (human)): 0.09 log2
- Log2 Fold change (vs control) (ECHS1 (human)): -0.33 log2
- Log2 Fold change (vs control) (DHRS4 (human)): 0.14 log2
- Log2 Fold change (vs control) (NDUFS6 (human)): -0.26 log2
- Log2 Fold change (vs control) (HSPA1L (human)): -0.71 log2
- Log2 Fold change (vs control) (HSD17B8 (human)): -2.58 log2
- Log2 Fold change (vs control) (NARS2 (human)): -0.14 log2
- Log2 Fold change (vs control) (OGDH (human)): 1.67 log2
- Log2 Fold change (vs control) (MRPS11 (human)): -0.34 log2
- Log2 Fold change (vs control) (T1MM44 (human)): -0.12 log2
- Log2 Fold change (vs control) (SUCLA2 (human)): -0.06 log2
- Log2 Fold change (vs control) (NFUl (human)): -0.32 log2
- Log2 Fold change (vs control) (GCDH (human)): 1 log2
- Log2 Fold change (vs control) (NDUFA7 (human)): -2.22 log2
